The values below come from patent US20240270820A1 (ELANCO US, published 2024).

For experiment [1], the target named is T1, canine IL4 (Sino Biological Inc, Cat #70021-DNAE-5) (canine, UniProt O77762 25-132).
T1 sequence (looked up): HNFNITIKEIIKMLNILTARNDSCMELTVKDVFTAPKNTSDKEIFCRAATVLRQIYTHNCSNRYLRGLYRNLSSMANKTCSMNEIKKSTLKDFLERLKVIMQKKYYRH
The experiment can be described thus: cell-based or functional assay.

Experiment [2] concerns the target T2, canine IL13 with C-terminal poly-His tag (canine, UniProt Q9N0W9 19-131).
T2 construct: Expressed in 293 cells and purified from the supernatant
T2 sequence: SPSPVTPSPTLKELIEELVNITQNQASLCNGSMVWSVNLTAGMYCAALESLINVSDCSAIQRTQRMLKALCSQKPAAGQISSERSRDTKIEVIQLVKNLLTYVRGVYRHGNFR
The experiment can be described thus: BLI (Octet), summary sentence of Example 4.

B1: canine IL4R-IL13R-IgGB (Fc fusion)
chain: SGSVKVLHEPSCFSDYISTSVCQWKMDHPTNCSAELRLSYQLDFMGSENHTCVPENREDSVCVCSMPIDDAVEADVYQLDLWAGQQLLWSGSFQPSKHVKPRTPGNLTVHPNISHTWLLMWTNPYPTENHLHSELTYMVNVSNDNDPEDFKVYNVTYMGPTLRLAASTLKSGASYSARVRAWAQTYNSTWSDWSPSTTWLNYYEPGGGSGTETQPPVTNLSVSVENLCTVIWTWDPPEGASPNCTLRYFSHFDNKQDKKIAPETHRSKEVPLNERICLQVGSQCSTNESDNPSILVEKCTPPPEGDPESAVTELQCVWHNLSYMKCTWLPGRNTSPDTNYTLYYWHSSLGKILQCEDIYREGQHIGCSFALTNLKDSSFEQHSVQIVVKDNAGKIRPSFNIVPLTSHVKPDPPHIKRLFFQNGNLYVQWKNPQNFYSRCLSYQVEVNNSQTETNDIFYVEEAKCQNSEFEGNLEGTICFMVPGVLPDTLNTVRIRVRTNKLCYEDDKLWSNWSQAMSIGENTDPTPKRENGRVPRPPDCPKCPAPEMLGGPSVFIFPPKPKDTLLIARTPEVTCVVVDLDPEDPEVQISWFVDGKQMQTAKTQPREEQFNGTYRVVSVLPIGHQDWLKGKQFTCKVNNKALPSPIERTISKARGQAHQPSVYVLPPSREELSKNTVSLTCLIKDFFPPDIDVEWQSNGQQEPESKYRTTPPQLDEDGSYFLYSKLSVDKSRWQRGDTFICAVMHEALHNHYTQESLSHSPGK
notes: also called canine IL4R-IL13R-Fc; Canine IL4R-IL13R-Fc (SINK)
B1: the “TF1 cell proliferation assay (CellTiter-Glo luminescence), IC50 by 4 parameter logistic fit” value in experiment [1] came out at 2 nM. The binding result in experiment [2] is on record as “binds”.

B2: canine IL13R-IL4R-IgGB (Fc fusion)
chain: TETQPPVTNLSVSVENLCTVIWTWDPPEGASPNCTLRYFSHFDNKQDKKIAPETHRSKEVPLNERICLQVGSQCSTNESDNPSILVEKCTPPPEGDPESAVTELQCVWHNLSYMKCTWLPGRNTSPDTNYTLYYWHSSLGKILQCEDIYREGQHIGCSFALTNLKDSSFEQHSVQIVVKDNAGKIRPSFNIVPLTSHVKPDPPHIKRLFFQNGNLYVQWKNPQNFYSRCLSYQVEVNNSQTETNDIFYVEEAKCQNSEFEGNLEGTICFMVPGVLPDTLNTVRIRVRTNKLCYEDDKLWSNWSQAMSIGENTDPTGGGSGSGSVKVLHEPSCFSDYISTSVCQWKMDHPTNCSAELRLSYQLDFMGSENHTCVPENREDSVCVCSMPIDDAVEADVYQLDLWAGQQLLWSGSFQPSKHVKPRTPGNLTVHPNISHTWLLMWTNPYPTENHLHSELTYMVNVSNDNDPEDFKVYNVTYMGPTLRLAASTLKSGASYSARVRAWAQTYNSTWSDWSPSTTWLNYYEPKRENGRVPRPPDCPKCPAPEMLGGPSVFIFPPKPKDTLLIARTPEVTCVVVDLDPEDPEVQISWFVDGKQMQTAKTQPREEQFNGTYRVVSVLPIGHQDWLKGKQFTCKVNNKALPSPIERTISKARGQAHQPSVYVLPPSREELSKNTVSLTCLIKDFFPPDIDVEWQSNGQQEPESKYRTTPPQLDEDGSYFLYSKLSVDKSRWQRGDTFICAVMHEALHNHYTQESLSHSPGK
notes: also called Canis lupus IL13R-IL4R-Fc; canine IL13R-IL4R-Fc
In the case of B2, the binding result in experiment [2] is “binds”.
